Experimental data published in the DeepSol protein solubility set.

experiment: soluble on expression in E. coli; label from the status in PepcDB or PDB records

| Sequence | soluble on expression in E. coli |
| --- | --- |
| DKSNKLQNLVAEQLVGCGFNEILNNSLTRAAYYDGLESYPSKNLVMLLNPLSADLNCMRQTLLFGGLESIAHNANRKNADLKFFEFGNCYHFDAEKKNPEKVLAPYSEDYHLGLWVTGKMVSNSWAHADENTSVYELKAYVENIFKRLGLDLHSLVVGNLSDDIYSTALTVNTKGGKRLATFGVVTKKMLKAFDVDNEVYYADLNWK | not soluble |
| DLREVLDFMLKDEVSKLRKLLVKIKTKKIAEVEYENVVKALKLFKDNYEINEYLMDENTKEFLIKRNILFLNPVEEILKPQSYLVWNAIKRVLQNINDF | soluble |
| DLRRQLRKAVMDHVSDSFLETNVPLLVLIEAAKNGNEKEVKEYAQVFREHANKLIEVANLACSISNNEEGVKLVRMSASQLEALCPQVINAALALAAKPQSKLAQENMDLFKEQWEKQVRVLTDAVDDITSIDDFLAVSENHILEDVNKCVIALQEKDVDGLDRTAGAIRGRAARVIHVVTSEMDNYEPGVYTEKVLEATKLLSNTVMPRFTEQVEAAVEALSSDPAQPMDENEFIDASRLVYDGIRDIRKAVLMI | soluble |
| DNYFRIHVKKLPEENKDAQGLWTWDDVEKPSENWPNGALSFKDAKKDDYGYYLDVKLKGEQAKKISFLINNTAGKNLTGDKSVEKLVPKMNEAWLDQDYKVFSYEPQPAGTVRVNYYRTDGNYDKKSLWYWGDVKNPSSAQWPDGTDFTATGKYGRYIDIPLNEAAREFGFLLLDESKGDVKIRKENYKFTDLKNHSQIFLKDDDESIYTNPYYVHD | soluble |
| DPTQSVRAYYIQNGDSTKTVIIGQGWTEHVDWIGYVSKIWYDMGYNVLMPSQRGQFLSDGDNLTFGYQDKYDWLNWVKMVDERNGADSQVVFYGQSLGADTVLEAASVPGLSKSVKAVVSDAGYATLPELGSSLYNKAITAVSNALQSIGLPAITSLPFLSYDKIVAAMNARLIKEQGFSVDDLSATDAASKITIPLLLIHTQDDAFIPYTQSLELAAANHSANQEVWILPGTVGGHAAANNAILQYRQHLLAFLTPLLSVADAED | not soluble |
| DQVGIWGNSPTAHRGLAVAARHAAPLLRVEDAFLRSLFPGRAGEPPLGLLLDRAGVHFDPTTPSDLEQLLTSAPLDDTTLLNRARDAMARIRENHLSKYCATDPDLPLPEPGYVLVIDQTRGDASVTASGGNDALFREMLVFAQEEHPGARVLIKTHPETAAGFRPGYYGERDISVRVSLYDAPLSPWALLDGAVGVYTLSSQLGFEAILAGHKPRVFGQPFYAGWGLTLDEHPVPRRERRLTRAQLFAAAMILYPTW | not soluble |
| DRCRYTLCCDGALKAVSACLHESESCLVPGDCCRGKSRLTLCSYGEGGNGFQCPTGYRQC | soluble |
| DRICTNCCAGTKGCKYFSDDGTFVCEGESDPRNPKACTLNCDPRIAYGVCPRSEEKKNDRICTNCCAGTKGCKYFSDDGTFVCEGESDPRNPKACPRNCDPRIAYGICPLA | soluble |
| DRLTVVKQYVDNVLNKASDTYHGDKPSPLLADGVDPRTGQQLEWIFPDGRRAVLSNFSAQQNLMRVMSGLSQLSGDPRYQKRAEDIVRYHFQNYQDPSGLLYWGGHRFVDLKTLQPEGPSEKEMVHELKNAYPYYDLMFSVDSDATARFIRGFWNAHVYDWRILETSRHGEYGKPMGALWESKFEQQPPFFATKGLSFLNAGNDLIYSASLLYKHQQDQGALTWAKRLADQYVLPRDAKTGLGVYQFTQALKREEPTDDADTHSKFGDRAQRQFGPEFGPTALEGNMMLKGRTSTLYSENALMQLQLGKDLGPQGQDLLKWTVDGLKAFAKYAYNDQDNTFRPMIANGQDLSNYTLPRDGYYGKKGTVLKPYKAGNEFLISYARAYAIDNDPLLWKVARGIANDQGLGDIGTAPGKEVKVNMDTTNSDPYALFALLDLYHASQVADYRKLAEKIGDNIIKIRYIDGFFMASSDRQYADVDAIEPYALLALEASLRNKPQAVAPFLNGAGFTEGAYRMDDGSARVSTRDNELFLLNVGEKLQPN | soluble |
| DRYCLTAPNYRLKSLQKKASTSAGRITVPRLSVGSVTSRPSTPTLGTPTPQTMSVSTKVGTPMSLTGQRFTVQMPTSQSPAVKASIPATSAVQNVLINPSLIGSKNILITTNMMSSQNTANESSNALKRKR | soluble |
| DTTERKRREKRLEETSSRLEALFENSPDMIDVLDADGTICEVNQRFCAELGYDESEVLGRSIWEFDLMFDAEDVQTQLSGFSVDERRKFEGLYERRDGSTMSVEVHLLRFNLEGEDRFLAISRD | soluble |
| DVLESTIKAQKSRALNRKNLNYKQLLNTFGSLIGLVFLKSYEQGERTYLGMLSRGYSKDSNIKTLGQK | not soluble |
| DVRGMSQSVGAVVRGFATADPHVRIAGVILNKVGTDRHAEVCREAVEAVGVRVLGAIPRVDHAEVPSRHLGLITSVELDAAEDAVAAMATMVEEHVDLNALIELADCAYNGPAWDPALAMGMSDAEALDN | not soluble |
| DVTGLATGFRDLDKITTGLHPDQLIILAARPAVGKTAFVLNIAQNVGTKMNRPVAIFSLEMGAESLVDRMLASEGMVDAHNLRTGQLTEQDWQNITLAQGTLADAPIYIDDTPGIKVTEIRARARKLDQELEKGLGLIVIDYLQLITGTRPENRQQEVSDISRQLKILAKELGVPVIALSQLSRGVEQRQDKRPVLSDI | not soluble |
| DWDSREKEAQRVAQRVTARTVSEIEYYHRESTQIAQALVENQARIEGIYKYFSLSMPDYFYWQLERKASPYISVSLYENVDDLYVRNDFVTGVAIAFQDYKEVYVSTKDKRSGEKIRAEDFKPAGNSFAIPVSDPVSDQDLGVIYISLDPAVLYHAIDNTRGHTPMAVTVTSPFDTEIFHMGETVDKESENWLVGLTSHGYQVQVAVPKN | not soluble |
| EACGYSDRVLQLTLGNSTITTQEAANSVVAYGRWPEYLRDSEANPVDQPTEPDVAACRFYTLDTVSWTKESRGWWWKLPDALRDMGLFGQNMYYHYLGRSGYTVHVQCNASKFHQGALGVFAVPEMCLAGDSNTTTMHTSYQNANPGEKGGTFTGTFTPDNNQTSPARRFCPVDYLLGNGTLLGNAFVFPHQIINLRTNNCATLVLPYVNSLSIDSMVKHNNWGIAILPLAPLNFASESSPEIPITLTIAPMCCEFNGLRNITLPRLQ | soluble |
| EDPGGITRTKGERVDATVDGLPDGVSPEDAAKFTSVLNKLIKDDPELKKSVEVKTLKAASKTKRTKEVVNWRGGGGFQVAHLSPACFDYDPALDRVMLTAAATGETLIESVAANLGFTLLHPDDDYVFDARRGNALLKVVEGVATPQIVDWLASQIQPGETIVLAATTVMDGVRQHLRKAVKGSRVVALPDDIFRYSEGGNK | not soluble |
| EEDWVLPSEVEVLESIYLDELQVIKGNGRTSPWEIYITLHPATAEDQDSQYVCFTLVLQVPAEYPHEVPQISIRNPRGLSDEQIHTILQVLGHVAKAGLGTAMLYELIEKGKEILTDNNIPHGQ | soluble |
| EERLKMSTTTSTQDSGLLKVLLPPFEKKNNVKVDVIAVGTGQALKLGEAGDVDVVFVHARKLEDKFVADGFGVNRKDVMYNDFVIVGPKNDPAGIAKAKTAAEALKLLATKGATFISRGDKSGTHTKELDLWKSAGVDPKGNWYVEAGQGMGPVITMATERRAYTLTDRGTYNAFKGAKTDLVILFQGEKGLFNPYGIMAVNPKKFPHVKYDLAMKLIDYVTGPEGLKIISDYKAHG | not soluble |
| EGIPWEGNYTSWLEQKDARLQQEASQESARQKTIEKELEWVRKNPKGRQAKSKARMARFEELQNTEHQKRNETNELFIPPGER | soluble |
| EHRSIMNTLNFLESHYPVTAEDAYLLKTNYVFDVSISELFGWFIGDGRLVILPPNGEKSPQLCMDYIETYKVTHINFVPAMLHVFLEMAKDNKRFTEDGPLKYMMVAGEAFPKVLVKKAVSLFTNCRVENIYGPTEASIYAAYFGCGKGDIASHHTPIGKP | not soluble |
| ELKDLQKDEKFWTESSQFKVSVPVGWDINHKEVCFEIGNEQNHTLICGRSGSGKSNFLHVLIQNLAFYYAPNEVQLFLLDYKEGVEFNAYTDPNILEHARLVSVASSVGYGMSFLNWLCKEMQERANLFKQFNVKDLSDYRKHGEIPRLIVVIDEFQVLFSDNKSTKAVEGHLNTLLKKGRSYGVHLILATQTMRGTDINRSIMAQIANRIALSMDAEDSNSILGDDAACELVRPEGIFNNNGGHQKHHTKMSIPKAP | not soluble |
| ELNKNFDAVVDTAIARWRRSGPVVAMTRPDLKHGRGGLRDFELIKALALGHLCNLPQLDAQHQLLLDARTLLHVHARRSRDVLDPEFAVDVAMDLGFVDRYHLGREIADAARAIDDGLTTALATARGILPRRTGFAFRNASRRPLDLDVVDANGTIELSKKPDLNDPALPLRVAAAAATTGLPVAESTWVRLNECPPLPEP | not soluble |
| EMVLLPAPQIPLIMKIMKNHTPTWLPGVPTLYEKIVAEATAKGVEIKGIRNSFSGASTLPVRTVEDWENLTGGLLVEGYGLTETSPVLCGNPMNGNRRPGYIGVPFPDTEIRIANPDNLDETMPDGEAGEVLARGPQIFQGYLNKPEATAATFHGDWFRTGDMGVMEEDGFIRLVSRIKEIIITGGFNVYPAEVEEALIAHPDVDDAAVVGRPRKDGSEDVVACIVLKDGAALDPEGLKTHCRKLLTRYKVPRTFYHFEALNKDQLGKVRRREVQQTLLERLGEK | not soluble |
| ENIEVHMLNKGAEGAMVFEPAYIKANPGDTVTFIPVDKGHNVESIKDMIPEGAEKFKSKINENYVLTVTQPGAYLVKCTIHYAMGMIALIAVGDSPANLDQIVSAKKPKIVQERLEKVIASAK | soluble |
